Results published in patent publication US20060182736.

Tests used:
Test in all cases: cell_activity
[1] = tested on: TAT-F435-p65 (QSHR2-RDHT-RSHR) (artificial); details: +/-0.5, secreted VEGF at 48 h, 293 cells, lysate
[2] = tested on: TAT-F121-KRAB (QSHT-RSHR-RDHT) (artificial); details: 293 cells
[3] = tested on: TAT-F435-KRAB/KOX (QSHR2-RDHT-RSHR) (artificial); details: +/-0.35, VEGF mRNA, 293 cells; protein 2.7 fold; H460 3.8 fold at 12 h (p247)
[4] = tested on: TAT-F475-KRAB (QSHR2-RDHT-RSNR) (artificial)
TAT-F475-KRAB (QSHR2-RDHT-RSNR) (artificial), sequence (chain, as listed by the source): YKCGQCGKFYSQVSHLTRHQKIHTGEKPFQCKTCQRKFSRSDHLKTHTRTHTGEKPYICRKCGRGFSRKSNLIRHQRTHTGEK

[5] = tested on: TAT-F475-p65 (QSHR2-RDHT-RSNR) (artificial); details: +/-0.48, 293 cells

TAT-F121-KRAB (QSHT-RSHR-RDHT) (artificial), sequence (chain, as listed by the source): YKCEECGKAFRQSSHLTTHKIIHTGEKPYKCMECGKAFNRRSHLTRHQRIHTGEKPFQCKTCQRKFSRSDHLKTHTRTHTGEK
TAT-F435-KRAB/KOX (QSHR2-RDHT-RSHR) (artificial), sequence (chain, as listed by the source): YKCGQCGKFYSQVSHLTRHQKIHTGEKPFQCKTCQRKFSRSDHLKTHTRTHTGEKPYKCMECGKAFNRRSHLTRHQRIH

Row | Substance | activity (fold activation) [1] | activity (fold repression) ([2]; +/-0.01, VEGF mRNA, lysate) | activity (fold repression) [3] | activity (fold repression) ([4]; +/-0.4, VEGF mRNA, 293 cells) | activity (fold activation) [5] | activity (fold repression) ([2]; +/-0.14, purified protein) | activity (fold repression) ([4]; 80 ug lysate, HEK293, 1.5 fold at 40 ug, vs TAT-only)
1 | endogenous VEGF-A gene | 2.5 | 1.7 | 3.1 | 3.1 | – | – | –
2 | native human VEGF promoter in pGL3-basic luciferase reporter | – | – | – | – | 2.5 | 2.1 | 2
